Numbering of substitutions follows the chain as printed. In names and notes the source's numbering stands. Several values for one entry are separate records, joined by “and”; a condition that tells them apart may be missing. Equal entries are not always repeated.
B1: 39B6-ANK IgG4 S228P (antibody, V domains shown)
VH: QVQLVQPGAEVRKPGASVKVSCKASGYRFTSYYIDWVRQAPGQGLEWMGRIDPEDAGTKYAQKFQGRVTMTADTSTSTVYVELSSLRSEDTAVYYCARNKWETVVVGDLMYEYEYWGQGTLVTVSS
VL: DIQMTQSPSSLSASVGDRVTITCQASQSISSYLAWYQQKPGQAPKILIYGASRLKTGVPSRFSGSGSGTSFTLTISSLEPEDAATYYCQQYASVPVTFGQGTKVEIKR
notes: Variant of 39B6-A in IgG4 S228P format; Positions are Kabat-type
B2: 39B6-ANR IgG4 S228P (antibody, V domains shown)
VH: B1 VH with K100R
VL: B1 VL
notes: as for B1
B3: 39B6-AVE IgG4 S228P (antibody, V domains shown)
VH: B1 VH with N99V, K100E
VL: B1 VL
notes: as for B1
B4: 39B6-AYE (ARGX-115), IgG4 S228P (antibody, V domains shown)
VH: B1 VH with N99Y, K100E
VL: B1 VL
B5: Fab 17H5 (Fab of LHG-10.6) (Fab, V domains shown)
VH: B1 VH with Q1E, V11L, K13N, P14S, A56G, M70F, V79A, K100E, L121Q
VL: DIQMTQSPSSLSASLGDRVTITCQASQSISSYLAWYQQKPGQAPNILIYGASRLKTGVPSRFSGSGSGTSFTLTISGLEAEDAGTYYCQQYASVPVTFGQGTKVELK
notes: Parental, non-germlined Fab
B6: LHG-10.6 monoclonal antibody (17H5 mAb), isotype not stated (antibody, V domains shown)
VH: B1 VH with Q1E, V11L, K13N, P14S, A56G, M70F, V79A, K100E, L121Q
VL: B5 VL
B7: LHG10.6 IgG1-N297Q (antibody, V domains shown)
VH: B1 VH with Q1E, V11L, K13N, P14S, A56G, M70F, V79A, K100E, L121Q
VL: B5 VL
B8: 39B6 IgG1-N297Q (antibody, V domains shown)
VH: B1 VH with A56G, K100E
VL: B5 VL with L15V, N45K, G77S, A80P, G84A, L106I
notes: Effector-deficient format hIgG1 N297Q; The second row may be the IgG4 S228P form; Both rows are written here as printed

Columns and labels:
[1] = biological target: T1, human GARP-TGF-β1 complex (recombinant complex of human GARP and latent human TGF-β1) (human, UniProt Q14392 20-627; P01137 30-278; P01137 279-390); experiment: SPR Biacore T200, CM5 chip coated with GARP-TGF-β1 complex at 150 RU
T1 construct: also called huGARP-TGF-β1; hGARP-TGF-β1
Method: (§1) The affinity of all antibodies (including 39B6-A) for GARP-TGF-β1 was tested by BiacoreT200 using a CM5 chip coated with GARP-TGF-β1 complex at 150RU (Table 17) or coated with the antibodies at 200RU (Table 17)

[2] = biological target: T1, human GARP-TGF-β1 complex (recombinant …); experiment: SPR Biacore T200, CM5 chip coated with the antibody at 200 RU, complex in solution
Method: as §1

[3] = biological target: T1, human GARP-TGF-β1 complex (recombinant …); experiment: SPR Biacore 3000, chip ~4000 RU hGARP-TGF-β; slope vs -20°C reference (=100%); sample 0 d, 5°C arm
Method: (§2) From the intermediate concentration of all samples at 1 mg/ml described above, an extra 1/250 dilution was done for SPR analysis to yield a final concentration of 4 μg/ml. This 1/250 dilution took place for all conditions in two steps: a) 5 μl (1 mg/ml)+120 μl HBS-EP (SPR buffer) and b) an extra 10× dilution (15 μl+135 μl HBS-EP). For each antibody and each time point, a separate standard curve was prepared, starting from a −80° C. frozen sample. This was analyzed together with the stability samples to determine the slope of each curve after general fitting of the standards. These slopes were used to calculate the percent activity of the stability samples by setting the reference sample at 100%.
(§3) To determine the target binding activity in Biacore, a CM5 chip was coated with ˜4000 RU human GARP-TGF-β complex. Flow was set to 30 μl/min with a “kinject” injection mode and two regeneration injections (1 mM NaCl, 2.5 mM glycine pH 1.5) with a 5 min interval.
(§4) Open the curves in the BIAEVAL program and select value ‘2-1’ (1: blank, 2 hGARP-TGF-β1) [0263] Select one curve at the time for plot overlay [0264] Delete the regeneration part of the curve [0265] Select the baseline just before the injection and transform the Y-axis for ‘zero at median of selection’ [0266] Select ‘General Fit’, starting from 120 sec after injecting and ending at 155 sec [0267] Plot the standards in Excel and determine the slope of the curve for each antibody [0268] These values are converted to a percent activity by setting the reference (sample stored at −20° C.) at 100%

[4] = biological target: T1, human GARP-TGF-β1 complex (recombinant …); experiment: SPR Biacore 3000, chip ~4000 RU hGARP-TGF-β; slope vs -20°C reference (=100%); sample 0 d, 37°C arm
Method: as §2, §3, §4

[5] = biological target: T1, human GARP-TGF-β1 complex (recombinant …); experiment: SPR Biacore 3000, chip ~4000 RU hGARP-TGF-β; slope vs -20°C reference (=100%); sample stored 28 d at 5°C
Method: as §2, §3, §4

[6] = biological target: T1, human GARP-TGF-β1 complex (recombinant …); experiment: SPR Biacore 3000, chip ~4000 RU hGARP-TGF-β; slope vs -20°C reference (=100%); sample stored 56 d at 5°C
Method: as §2, §3, §4

[7] = biological target: T1, human GARP-TGF-β1 complex (recombinant …); experiment: SPR Biacore 3000, chip ~4000 RU hGARP-TGF-β; slope vs -20°C reference (=100%); sample stored 28 d at 37°C
Method: as §2, §3, §4

[8] = biological target: T1, human GARP-TGF-β1 complex (recombinant …); experiment: SPR Biacore 3000, chip ~4000 RU hGARP-TGF-β; slope vs -20°C reference (=100%); sample stored 56 d at 37°C
Method: as §2, §3, §4

[9] = biological target: T2, complex of recombinant GARP and recombinant LAP (human, UniProt Q14392 20-627; P01137 30-278); experiment: ELISA in two orientations: GARP coated and LAP captured; or ARGX-115 coated, GARP then LAP added, detected with anti-LAP-HRP
T2 construct: Formed on the ELISA plate; It contains no mature TGF-β; also called GARP-LAP complex
Method: For ELISA plates coated with GARP, a complex with either full-length latent TGF-β (including both the LAP and mature TGF-β regions) or a complex with recombinant LAP was allowed to form by the addition of the relevant recombinant protein. […] In contrast, an anti-LAP antibody was able to bind to the GARP-LAP complex.
An ELISA plate was coated with recombinant GARP (1 μg/mL O/N 4° C.), blocked with blocking agent (casein-PBS), and LAP (5 μg/mL) was captured on the coated recombinant GARP. LAP binding was detected with anti-LAP-HRP.

[10] = biological target: T1, human GARP-TGF-β1 complex (recombinant …); experiment: SPR, Fab off-rate on human GARP-TGF-β1 complex
[11] = biological target: T1, human GARP-TGF-β1 complex (recombinant …); experiment: SPR, mAb on human GARP-TGF-β1 complex
Excerpt: The five germlined clones reformatted to human IgG1 were produced by transient transfection in HEK 293E cells.

[12] = biological target: T1, human GARP-TGF-β1 complex (recombinant …); experiment: SPR Biacore T200, CM5 chip coated with GARP-TGF-β1 complex at 750 RU
Method: (§5) Clone 39B6 was selected as the lead germlined clone based on its binding characteristics. This antibody was produced in two effector function deficient formats, hlgG1^N297Q and hlgG4^S228P, and stability tests were carried out. Prior to the stability testing, the affinity of the effector deficient 39B6 antibodies for GARP-TGF-β1 was tested by BiacoreT200 using a CM5 chip coated with GARP-TGF-β1 complex at 750RU (Table 14) or coated with the antibodies at 1000RU (Table 15).

[13] = biological target: T1, human GARP-TGF-β1 complex (recombinant …); experiment: SPR Biacore T200, CM5 chip coated with the antibody at 1000 RU, complex in solution
Method: as §5

T1 sequence (Q14392 20-627 limits assumed, chain 1 of 3): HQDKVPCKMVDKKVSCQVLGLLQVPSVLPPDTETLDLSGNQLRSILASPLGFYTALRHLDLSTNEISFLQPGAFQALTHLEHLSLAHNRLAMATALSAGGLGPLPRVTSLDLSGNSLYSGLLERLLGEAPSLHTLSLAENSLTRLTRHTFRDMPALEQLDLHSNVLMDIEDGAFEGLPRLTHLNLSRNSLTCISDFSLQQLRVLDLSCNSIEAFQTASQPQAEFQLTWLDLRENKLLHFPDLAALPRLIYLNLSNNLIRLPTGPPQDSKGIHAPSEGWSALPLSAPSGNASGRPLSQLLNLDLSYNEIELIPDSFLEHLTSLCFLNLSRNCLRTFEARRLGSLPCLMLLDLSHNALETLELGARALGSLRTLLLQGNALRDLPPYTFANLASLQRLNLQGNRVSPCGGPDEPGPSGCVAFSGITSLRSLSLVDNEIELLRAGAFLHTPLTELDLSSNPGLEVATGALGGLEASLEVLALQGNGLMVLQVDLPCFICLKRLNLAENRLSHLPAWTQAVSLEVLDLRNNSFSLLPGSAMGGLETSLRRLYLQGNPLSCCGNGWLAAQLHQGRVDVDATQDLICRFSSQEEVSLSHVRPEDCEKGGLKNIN
T1 sequence (P01137 30-278 limits assumed, chain 2 of 3): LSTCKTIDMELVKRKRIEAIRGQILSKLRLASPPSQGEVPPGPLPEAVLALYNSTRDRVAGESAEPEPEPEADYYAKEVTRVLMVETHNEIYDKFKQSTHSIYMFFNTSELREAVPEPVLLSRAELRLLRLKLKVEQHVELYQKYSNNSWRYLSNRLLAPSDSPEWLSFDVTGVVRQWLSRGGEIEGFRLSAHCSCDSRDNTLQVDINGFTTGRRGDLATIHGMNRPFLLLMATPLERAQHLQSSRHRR
T1 sequence (P01137 279-390 limits assumed, chain 3 of 3): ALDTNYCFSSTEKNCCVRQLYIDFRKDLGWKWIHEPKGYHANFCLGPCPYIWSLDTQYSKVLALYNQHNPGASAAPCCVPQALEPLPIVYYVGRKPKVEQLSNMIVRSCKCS
T2 sequence (Q14392 20-627 limits assumed, chain 1 of 2): as the sequence (Q14392 20-627 limits assumed, chain 1 of 3) above
T2 sequence (P01137 30-278 limits assumed, chain 2 of 2): as the sequence (P01137 30-278 limits assumed, chain 2 of 3) above

Binder	Fold-difference (KD vs 39B6-A) [1] [fold]	Kd [1] [nM]	Fold-difference (KD vs 39B6-A) [2] [fold]	Kd [2] [nM]	Activity on Biacore (%) [3] [%]	Activity on Biacore (%) [4] [%]	Activity on Biacore (%) [5] [%]	Activity on Biacore (%) [6] [%]	Activity on Biacore (%) [7] [%]	Activity on Biacore (%) [8] [%]	binding result [9]	koff [10] [s⁻¹]	Kd [11] [nM]	fold difference (KD vs 17H5) [11] [fold]	Fold-difference (KD vs LHG10.6) [12] [fold]	Kd [12] [nM]	Fold-difference (KD vs LHG10.6) [13] [fold]	Kd [13]
B1	0.9	0.88	1.5	2.02	130	130	101	101	77.8	62.4	–	–	–	–	–	–	–	–
B2	0.9	0.884	1.5	1.94	101	101	129	85.4	85.4	46.3	–	–	–	–	–	–	–	–
B3	0.9	0.894	1	1.29	99.5	99.5	99	96.9	68	31.3	–	–	–	–	–	–	–	–
B4	0.8	0.763	1.2	1.62	93.5	93.5	96.7	104	96.1	104	no binding	–	–	–	–	–	–	–
B5	–	–	–	–	–	–	–	–	–	–	–	0.000201	–	–	–	–	–	–
B6	0.5	0.517	–	–	–	–	–	–	–	–	–	–	0.1	1	–	–	–	–
B7	–	–	–	–	–	–	–	–	–	–	–	–	–	–	1	0.819	1	0.534 nM
B8	–	–	–	–	–	–	–	–	–	–	–	–	–	–	–	–	–	1.23 nM and 1.02 nM
